Entries after “also recorded” stand apart in the source; their conditions may differ.
Assays:
[1] = system: human KIF20A transcript; test: shRNA screening by dual luciferase reporter assay; format: cell-based; settings: transfected HEK293 cells, shRNA in pNUT vector, cDNA target in psi-CHECK, 48 hours
Experimental: FIGS. 10a-10c show generation of human KIF20A shRNAs and stable Daoy cell lines. […] Candidate shRNAs in pNUT vector were first screened with a cDNA target cloned in psi-CHECK vector in transfected HEK293 cells, using a dual luciferase reporter assay and their cDNA target in psi-CHECK Vector (Promega). Six candidate shKIF20As were tested with this assay. […] Data are mean±S.D. **P<0.01, ***P<0.001 (two-way ANOVA).
DNA Constructs, Lentivirus Production: Lentiviral transfer plasmids used in this study include: Hiv7CMV-Cre-myc-2A-GFP (Addgene #117148), Hiv7CMV-GFP, Hiv7CMV-GFP-IRES-Luciferase, as well as Tet-on inducible shRNA plasmids Tet-pLKO-hushKIF20A726 or Tet-pLKO-hushKIF20A181-Puro (shRNA sequences were cloned into pLKO-Tet-On plasmid, Addgene #21915 at Agel/EcoRI sites). […]
shRNA design and screening: Potential shRNA sequences were selected using web-based design tool (rnaidesigner.thermofisher.com/rnaiexpress/design.do). shRNAs were expressed under the control of a mouse U6 promoter in pNUTs vector which additionally contains a ubiquitin promoter-EGFP expression cassette. Candidate shRNAs in pNUTs and cDNA target in psi-CHECK were co-transfected into HEK293 cells in triplicates; 48 hours later, the firefly and Renilla Luciferase values were determined with Promega's Dual-Luciferase® Reporter Assay System (Promega, E1910). […]

[2] = system: Daoy human MB cells; test: Growth assay of Daoy cells; format: cell-based; settings: parental Daoy cells with or without doxycycline
Experimental: Generation of Daoy cell lines with stably integrated Tet-on inducible shRNA expression system: Daoy cells were infected with lentivirus of Tet-on inducible human KIF20A shRNA-726 and GFP-Luciferase prepared from Tet-pLKO-hushKIF20A726 plasmid and Hiv7CMVGFP-IRES-Luciferase plasmid, respectively. The transduced Daoy cells were selected for stable single clones with Puromycin (1 μg/ml, Sigma-Aldrich) and GFP fluorescence signal in DMEM (Invitrogen) with 10% fetal bovine serum. Single clones were picked up by glass cloning cylinders (Sigma-Aldrich) in 10 cm plate.
Growth Assay of tumor cells: Mouse MB cell lines, or Daoy clones stably integrated with Tet-on inducible human KIF20A shRNA-726, or Wild Type Daoy cells, were seeded into multiple wells of 24 well plates (2×10^4 or 1×10^4 cells per well). Cells in quadruplicate were then dissociated and counted using a hemocytometer at consecutive days after initial plating.

[3] = system: neural progenitor cells (NPCs); test: In utero electroporation over-expression in the mouse cortex; format: in vivo; settings: expression plasmid delivered at E13.5 via IUE, brains collected at E15.5
Excerpt: Expression plasmid of GFP, RBD (RGS-binding domain of mouse KIF20A), or RGS was delivered into the cortices at E13.5 via in utero electroporation (IUE). Brains were collected at E15.5 for analyses. Distribution of transfected cells (GFP+) across the radial domains were scored. […] VZ, ventricular zone; IZ, intermediate zone; CP, cortical plate. Green and blue asterisks indicate P<0.01 (Student's t-test) for CP and SVZ/VZ distributions, respectively.
RGS3-KIF20A interaction is mediated by the RGS domain of RGS3 and the RGS-binding domain (RBD) of KIF20A which is located to amino acids 625-818 of mouse KIF20A sequence (FIG. 13a)^9. […] In this experiment, expression plasmid of GFP, RBD (RGS-binding domain of KIF20A), or RGS was delivered into the cortices at E13.5 via IUE. Brains were collected at E15.5 for analyses. Distribution of transfected cells (GFP+) across the radial domains were scored.

[4] = biological target: T1, SEPT7 (Mus musculus, UniProt O55131); settings: cited from earlier work
T1 sequence (O55131 1-436): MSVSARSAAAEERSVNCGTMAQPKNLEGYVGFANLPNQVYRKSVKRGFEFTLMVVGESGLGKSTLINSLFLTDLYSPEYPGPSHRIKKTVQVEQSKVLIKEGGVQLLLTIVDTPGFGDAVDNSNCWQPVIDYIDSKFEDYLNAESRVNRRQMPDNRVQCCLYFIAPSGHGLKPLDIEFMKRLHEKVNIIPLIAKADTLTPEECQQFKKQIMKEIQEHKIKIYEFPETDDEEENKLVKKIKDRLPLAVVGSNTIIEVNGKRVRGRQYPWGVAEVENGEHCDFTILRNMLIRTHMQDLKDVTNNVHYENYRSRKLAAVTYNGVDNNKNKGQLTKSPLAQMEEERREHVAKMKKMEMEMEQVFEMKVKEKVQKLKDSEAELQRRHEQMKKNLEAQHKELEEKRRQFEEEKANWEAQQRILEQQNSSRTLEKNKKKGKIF

[5] = biological target: T2, RGS3-KIF20A interaction (Mus musculus, UniProt Q9DC04); test: GST-RGS pulldown experiment; format: binding; settings: expression of RBD, GST-RGS pull down
T2 construct: mediated by the RGS domain of RGS3

[6] = system: GISC017 cells; test: Cell cycle exit analysis (EdU/Ki67) in GISC017 cells; format: cell-based, human; settings: lentiviral expression of RBD
Excerpt: To further investigate the relevance of KIF20A in human brain tumors, inhibition of KIF20A in patient-derived GBM-initiating/stem cells (GISCs) was examined. As the ERKS axis functions in different types of brain tumor-initiating/stem cells, data obtained from study of GISCs would be applicable to other brain tumor cell types. Multiple lines of patient-derived GISCs were obtained from Dr. Christine Brown. These low passaged GISCs could be expanded in cultures and could engraft in NSG mice^43, 44. FIG. 11 summarizes the results of testing KIF20A in one GISC line (GISC017) by constitutive expression of a control scrambled shRNA or shKIF20A726 (shRNA targeting hKIF20A) in pNUT vector-based lentiviral expression system. […] In the above cell cycle exit analysis, co-staining of differentiation markers (e.g. βlll-tubulin, DCX, or NeuN) was performed, however, these markers were detected in EdU^+Ki67^− (cells having left the cell cycle) but also in some EdU^+Ki67^+ (cells staying in the cell cycle) cells, which might reflect a technical artefact observed with progenitor/stem cells in culture. […]

T2 sequence (Q9DC04 841-966 limits assumed): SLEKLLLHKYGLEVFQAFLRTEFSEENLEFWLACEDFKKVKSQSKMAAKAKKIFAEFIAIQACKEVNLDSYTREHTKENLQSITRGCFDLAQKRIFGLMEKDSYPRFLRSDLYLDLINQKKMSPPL

Molecule: 5′-AGTATGGAGAAGGTGAAAG-TTCAAGAGA-CTTTCACCTTCTCCATACT-3′ (AGTATGGAGAAGGTGAAAGTTCAAGAGACTTTCACCTTCTCCATACT; expressed or natural sequence) [shKIF20A181, shRNA targeting human KIF20A transcript]
- inhibition of expression of the human KIF20A transcript (luciferase assay) [1]: significantly inhibit expression of the human KIF20A transcript

Molecule: C[C@H]1c2cccc(O)c2C(=O)C2=C(O)[C@]3(O)C(=O)C(C(N)=O)=C(O)[C@@H](N(C)C)[C@@H]3[C@@H](O)[C@@H]21 [doxycycline, reference compound]
- growth of parental Daoy cells (cytotoxicity of doxycycline) [2]: not affected

B1: RBD: RGS-binding domain of KIF20A, amino acids 625-818 of mouse KIF20A sequence; competitive inhibitor for RGS3-KIF20A interaction (protein)
chain: LKILKESLTTFYQEQIQERDEKIEELETLLQEAKQQPAAQQSGGLSLLRRSQRLAASASTQQFQEVKAELEQCKTELSSTTAELHKYQQVLKPPPPAKPFTIDVDKKLEEGQKNIRLLRTELQKLGQSLQSAERACCHSTGAGKLRQALTNCDDILIKQNQTLAELQNNMVLVKLDLQKKAACIAEQYHTVLKL
modifications: left off: small tags and cut ends
- neuronal differentiation of neural progenitor cells [3]: caused precocious neuronal differentiation of the affected NPCs; also recorded: caused neural progenitor cell differentiation and subsequent outward migration of newly born neurons into the IZ and CP regions
- neuronal differentiation of neural progenitor cells ([3]; listed as KIF20A625-818): cause neuronal differentiation
- interaction with SEPT7 [4]: interacts with SEPT7
- inhibition of binding of GST-RGS and KIF20A [5]: inhibited binding between RGS3 and mouse KIF20A
- inhibition of binding of GST-RGS and KIF20A ([5]; listed as Flag-RBD): inhibited binding of GST-RGS and KIF20A in a dose dependent manner
- inhibition of binding of GST-RGS and KIF20A ([5]; listed as KIF20A625-818): block interaction between KIF20A and RGS3
- cell cycle exit [6]: induce cell cycle exit; also recorded: caused cell cycle exit

From patent publication US20240240189A1, “CANCER TREATMENT BY TARGETING PROTEINS OR INTERACTIONS OF EPHRINB-RGS3-KIF20A-SEPT7 AXIS” (CITY OF HOPE, priority 2021, published 2024)
